Test results: US20150050283A1 (TORAY INDUSTRIES, published 2015)
Positions count from the first letter of the chain named. Blank lines part the entries; values can stand above or below the binder they belong to.

How the values were obtained:
[1] = target: T1, partial CAPRIN-1 polypeptide consisting of the amino acid sequence of SEQ ID NO: 5 (human); test: ELISA on immobilized peptides, antibody at 0.1 µg/mL
T1 construct: Synthetic peptide immobilized on ELISA plates
T1 peptide: ATQVPLVSSTSEGYTA
Procedure: Each peptide was dissolved at a concentration of 30 μg/ml in a 0.1 M sodium carbonate buffer solution (pH 9.6). […] The solution in each well was discarded, and 10 mM ethanolamine/0.1 M sodium carbonate buffer solution (PH 9.6) was added thereto at a concentration of 200 μL/well and left standing at room temperature for 1 hour. Then, the solution in each well was discarded, and each well was washed twice with PBS containing 0.5% Tween 20 (PBST) to prepare a peptide-immobilized plate. For verification, CAPRIN-1 proteins were immobilized on wells of this plate to prepare another plate according to the method described above. […] After shaking at room temperature for 1 hour, the solution in each well was discarded, and each well was washed three times with PBST. Next, a secondary antibody solution containing HRP-labeled anti-rabbit IgG antibodies diluted 3000- to 4000-fold with PBST was added thereto at a concentration of 50 μL/well. Then, the solution in each well was discarded, and each well was washed six times with PBST. A TMB substrate solution (manufactured by Thermo Fisher Scientific Inc.) was added thereto at a concentration of 100 μL/well and left standing for 15 to 30 minutes to cause color reaction. […] The absorbance was measured at 450 nm and 595 nm using an absorption spectrometer.

[2] = target: T1, partial CAPRIN-1 polypeptide consisting …; test: ELISA as in Example 9(1), purified antibody
[3] = target: T1, partial CAPRIN-1 polypeptide consisting …; test: peptide ELISA as in Example 9(3)
[4] = target: T2, human CAPRIN-1 protein having the amino acid sequence of SEQ ID NO: 2 (human, UniProt Q14444 1-709, limits assumed); test: ELISA as in Example 9(3)
T2 construct: also called CAPRIN-1 proteins
T2 sequence: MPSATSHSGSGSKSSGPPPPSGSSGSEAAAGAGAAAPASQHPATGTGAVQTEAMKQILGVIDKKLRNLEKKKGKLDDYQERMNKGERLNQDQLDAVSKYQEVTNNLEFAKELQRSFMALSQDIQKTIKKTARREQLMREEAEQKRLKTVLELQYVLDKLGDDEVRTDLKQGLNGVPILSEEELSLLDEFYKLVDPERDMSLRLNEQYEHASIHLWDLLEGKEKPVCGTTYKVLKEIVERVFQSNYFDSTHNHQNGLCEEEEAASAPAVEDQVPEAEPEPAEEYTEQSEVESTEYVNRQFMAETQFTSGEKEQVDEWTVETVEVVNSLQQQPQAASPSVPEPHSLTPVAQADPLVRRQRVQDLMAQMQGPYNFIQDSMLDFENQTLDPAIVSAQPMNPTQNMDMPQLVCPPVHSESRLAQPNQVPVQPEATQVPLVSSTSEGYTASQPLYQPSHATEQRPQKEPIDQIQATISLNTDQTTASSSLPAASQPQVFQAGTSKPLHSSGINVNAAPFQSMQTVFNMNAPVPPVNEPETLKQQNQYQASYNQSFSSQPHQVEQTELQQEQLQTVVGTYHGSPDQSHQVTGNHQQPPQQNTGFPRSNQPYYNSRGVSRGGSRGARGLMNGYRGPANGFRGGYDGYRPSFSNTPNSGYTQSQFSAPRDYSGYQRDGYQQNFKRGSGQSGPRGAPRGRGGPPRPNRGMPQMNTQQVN

[5] = target: T3, CAPRIN-1 protein on the cell membrane surface of human cancer cell lines (human, UniProt Q14444 2-709); test: flow cytometry on human cancer cell lines as in Example 9(3)
T3 construct: whole, on cells; Endogenous CAPRIN-1 on human cancer cell lines (MDA-MB-231V, QG56, DLD-1, Capan-2 and others); The cells were not transfected; also called CAPRIN-1 on cancer cell surface
T3 sequence (looked up): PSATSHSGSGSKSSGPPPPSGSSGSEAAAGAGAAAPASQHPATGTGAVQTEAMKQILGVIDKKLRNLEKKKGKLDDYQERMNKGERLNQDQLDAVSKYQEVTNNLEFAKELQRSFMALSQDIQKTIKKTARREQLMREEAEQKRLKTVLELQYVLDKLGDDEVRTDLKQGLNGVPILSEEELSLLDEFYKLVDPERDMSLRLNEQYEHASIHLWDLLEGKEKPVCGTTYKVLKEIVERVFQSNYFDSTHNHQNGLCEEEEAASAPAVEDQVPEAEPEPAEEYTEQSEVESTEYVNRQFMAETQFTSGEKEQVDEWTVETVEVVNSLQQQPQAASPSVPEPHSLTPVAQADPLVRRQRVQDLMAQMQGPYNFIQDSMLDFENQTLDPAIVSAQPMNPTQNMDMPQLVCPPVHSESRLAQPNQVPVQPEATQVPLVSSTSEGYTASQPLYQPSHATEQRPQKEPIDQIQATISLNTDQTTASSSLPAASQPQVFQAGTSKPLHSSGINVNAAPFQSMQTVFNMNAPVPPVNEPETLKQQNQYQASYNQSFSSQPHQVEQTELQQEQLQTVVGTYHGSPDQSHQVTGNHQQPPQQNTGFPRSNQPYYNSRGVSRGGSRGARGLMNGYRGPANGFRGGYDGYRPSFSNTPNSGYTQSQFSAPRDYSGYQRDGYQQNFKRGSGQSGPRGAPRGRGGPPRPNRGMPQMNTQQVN

binding result [3]: binds
binding result [4]: binds
binding result [5]: binds
B4: humanized anti-CAPRIN-1 antibody #3 (antibody, V domains shown)
VH: EVQLVESGGGLVQPGGSLRLSCAASGFSFSGSYYMSWVRQAPGKGLEWIAYIYIGDGVTAYANWAKGRFTISRDNSKNTLYLQMNSLRAEDTAVYYCARGNKLWGPGTLVTVSS
VL: DIQMTQSPSSLSASVGDRVTIKCQASQSISSYLAWYQQKPGKAPKRLIYDASNLDSGVPSRFSGSGSGTDFTFTISSLQPEDIATYYCQCTAVSSATIYGNAFGGGTKVEIK
notes: Human IgG1 heavy chain constant region and 'human IgG1 light chain constant region'; also called humanized rabbit anti-CAPRIN-1 monoclonal antibody #3; humanized anti-CAPRIN-1 monoclonal antibody #3

binding result [3]: binds
binding result [4]: binds
binding result [5]: binds
B5: humanized anti-CAPRIN-1 antibody #1 (antibody, V domains shown)
VH: B4 VH with E1Q, Q13K, S76A, T79S, Y96F, K102R, P106Q
VL: B4 VL with S14A, A43P
notes: Human IgG1 heavy chain constant region and 'human IgG1 light chain constant region'; also called humanized rabbit anti-CAPRIN-1 monoclonal antibody #1; humanized anti-CAPRIN-1 monoclonal antibody #1

Continued, binder first:

B1: rabbit anti-CAPRIN-1 monoclonal antibody #1 (antibody, V domains shown)
VH: QSLEESGGDLVKPGASLTLTCTASGFSFSGSYYMSWVRQAPGKGLEWIAYIYIGDGVTAYANWAKGRFTISKASSTTVTLQMTSLTAADTATYFCARGNKLWGPGTLVTVSS
VL: DVVMTQTPASVEAAVGGTVTIKCQASQSISSYLAWYQQKPGQPPKRLIYDASNLDSGVPSRFKGSGSGTDFTITISDLECADAATYYCQCTAVSSATIYGNAFGGGTEVVVK
notes: Rabbit hybridoma monoclonal antibody; also called rabbit anti-CAPRIN-1 antibody #1
binding result [1]: binds

B2: human-rabbit chimeric anti-CAPRIN-1 antibody #1 (antibody, human IgG1, V domains shown)
VH: B1 VH
VL: B1 VL
notes: also called human-rabbit chimeric anti-CAPRIN-1 monoclonal antibody #1
binding result [2]: binds

B3: humanized anti-CAPRIN-1 antibody #2 (antibody, V domains shown)
VH: B4 VH with R73K, Y96F
VL: B4 VL
notes: Human IgG1 heavy chain constant region and 'human IgG1 light chain constant region'; also called humanized rabbit anti-CAPRIN-1 monoclonal antibody #2; humanized anti-CAPRIN-1 monoclonal antibody #2
binding result [3]: binds
binding result [4]: binds
binding result [5]: binds
